Measurements taken from PMC3583217, “Novel HER2 Aptamer Selectively Delivers Cytotoxic Drug to HER2-positive Breast Cancer Cells in Vitro”.

Molecular target: HER2 extracellular domain (ECD) (UniProt P04626 23-652)
Test: flow cytometry on protein-coated beads; random-library background subtracted; Hanks buffer (SELEX binding buffer with 0.1 mg/mL salmon sperm DNA and 1 mg/mL BSA), 37 C, 30 min; pH not stated; aptamer pool heated 95 C 5 min then iced in SELEX
Details: protein: commercial; tags: covalently coupled to magnetic beads; label: FITC (5' via primer P1 in SELEX)

B1: HB5 (ssDNA)
DNA: AACCGCCCAAATCCCTAAGAGTCTGCACTTGTCATTTTGTATATGTATTTGGTTTTTGGCTCTCACAGACACACTACACACGCACA
Kd: 316 nM
